Earlier results on 1 substance are cited in PMC11301627.

For orientation: pKa means the pH at which an ionisable group is half protonated.

This data set has as its target Asp133 (UniProt position 133, SNFHFDTTAAH). Briefly: kinetics. Conditions: wild-type enzyme, steady-state reaction with L-Trp.

As to “Tryptophan indole-lyase (TIL, tryptophanase) (Proteus vulgaris)”, the pKa is given as 5.3.
